Paper PMC3506534, “LL-37 Induces Polymerization and Bundling of Actin and Affects Actin Structure” (PLoS ONE, 2012)

Molecular target: rabbit skeletal muscle α-actin (rabbit) (UniProt P68135)

Sequence of DNase1 (P00639 23-282): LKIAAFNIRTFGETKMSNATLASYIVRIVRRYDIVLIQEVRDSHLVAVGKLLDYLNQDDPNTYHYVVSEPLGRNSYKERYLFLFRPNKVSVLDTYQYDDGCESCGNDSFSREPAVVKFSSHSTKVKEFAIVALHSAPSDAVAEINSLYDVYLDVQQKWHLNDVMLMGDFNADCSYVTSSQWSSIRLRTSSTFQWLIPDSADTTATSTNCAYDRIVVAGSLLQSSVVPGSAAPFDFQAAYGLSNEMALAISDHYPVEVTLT

disappearance of Mg-F-actin bundles (bundled by 9 µM LL-37) and depolymerization of the filaments after 6 µM DNase1 (low and high speed sedimentation): 100%
Substance: DNase1 (from UniProt P00639 23-282) (enzyme)
